We go through one substance from PMC11489326, “Characterization of lignin-degrading enzyme PmdC, which catalyzes a key step in the synthesis of polymer precursor 2-pyrone-4,6-dicarboxylic acid” (The Journal of Biological Chemistry, 2024).

The assay concerns the target CHMS dehydrogenase PmdC from Comamonas testosteroni (Comamonas testosteroni). The experiment in a line: SEC; purified PmdC (wild type and mutants) in solution; conditions of the run not told in the text shown (Figs. S5, S12).

By stoichiometry N is commonly meant a count of units in the complex or per binding partner.

Take “CHMS dehydrogenase PmdC from Comamonas testosteroni (enzyme)”: the stoichiometry N is 2.
